In patent US20230002478A1 one finds Kd data, which are given here for one molecule.

The target of assay [1] is SARS-CoV-2 S Trimer (SARS-CoV-2), P0DTC2. Kind of assay: SPR. As to conditions: remark: other sources report otherwise.
Assay [2] addresses SARS-CoV-2 S1-Fc (South Africa 178-08) (SARS-CoV-2), P0DTC2. Kind of assay: SPR. The following applies: remark: other sources report otherwise.

By Kd is commonly meant the equilibrium constant for the complex coming apart. Low values mean higher affinity, high ones lower affinity.

B1: 6-63 (Fc fusion)
chain: EVQLVESGGGLVQPGGSLRLSCAASGQTFNMGWFRQAPGKEREFVAAIGSGGSTSYADSVKGRFTISADNSKNTAYLQMNSLKPEDTAVYYCWRLGNDYFDYWGQGTLVTVSS
As for B1, the dissociation constant (Kd) in assay [1] turned out to be 0.68 nM; in assay [2] it was 26.8 nM.
